Test results: article PMC8096248

How the values were obtained:
[1] = target: family-D DNA polymerase (PolD), DP1–DP2 complex, T. kodakarensis, recombinant wild type (Thermococcus kodakarensis) (UniProt Q5JET0); test: SPR
[2] = target: PolD cPIP mutant;PCNA1 (Thermococcus kodakarensis;Thermococcus …, UniProt Q5JET1;Q5JET0;Q5JF32 1-735;1-963+1438-1798;1-249, L1792A;F1795A;F1796A;internal_change|); test: gel filtration
[3] = target: PolD (DP1-DP2);PCNA1 (Thermococcus kodakarensis;Thermococcus …, UniProt Q5JET1;Q5JET0;Q5JET0;Q5JF32 1-735;1-963;1438-1798;1-249, |); test: gel filtration

B1: PriL, large subunit of primase, T. kodakarensis, recombinant (natural protein)
chain: MLDPFGKRAESLIREEFGDLLALLERVPSAISVEEPISLVSWMLESENPPQELVEVDNLEELRDLFKFYALLGAASISPYGLEAEVVKRATLRLYSERIKASKNLSETMLPVVPVGENEIPHNDLNILERRMDRNLSPEEKEKLKIKYKIPIKDLLNLWGSSLKEVYIRNGYAYLRWETALKMWEKAFEKRFERAVNILYEYRDELPEFYHRLREKLEEIAEEYFKERGEMFKGTASPLRFDLFPPCVKEALKGVPAGMRNYAITVLLTSFLSYARICPNPPKKDVRIKDCINDLKIIEEEILPVIIEAGNRCKPPLFEDQPHEIKNIWYHLGFGLTDSPTMEDSGNSTWYFPPNCDKIRANAPQLCKPDKYCRGIKNPLSYYLKRLYLEGKKKEGETSE
- Kd [1]: 160 nM

B2: PriS, small subunit of primase, T. kodakarensis, recombinant (natural protein)
chain: MSKLLREVTPEERRLYYSGEWDAKKLPEFIVESIERREFGFDHTGEGPSDRKNAFSDVRDLEDYIRATAPYAAYSSVAFYRNPQEMEGWLGAELVFDIDAKDLPLRRCQNEHPSGQVCPICLEDAKELARDTLIILKEDFGFENIHVVYSGRGYHIRVIDEWALKLDSKARERILSYVSAAEEVTFDDIQKRYIMLSSGYFRVFRLRFGYFIQRINENHLKNIGLKRSTAEKLLDEKTRQDIVEKFVNKGLLAAFPEGVGYRTLLRLFGLSTTFSKAYFDGRVTVDLKRILRLPSTLHSKVGLVATYIGSDEKRLEKFDPFKDAVPEFRKEEVQKAYQEWKELHEG
- Kd [1]: 1400 nM

B3: primed DNA d29/d45 (dsDNA)
DNA 1: GGTACCGGGCCCCCCCTCGAGGTCGACGG
DNA 2: ATCAAGCTTATCGATACCGTCGACCTCGAGGGGGGGCCCGGTACC
modifications: 3'-OH of d29 replaced by NH2
- binding result [2]: binds
- binding result [3]: binds
